According to patent publication US20220042033A1, “COMPOSITION AND METHOD FOR CONFERRING AND/OR ENHANCING TOLERANCE AGAINST HERBICIDES BY USING VARIANTS OF PPO” (FarmHannong Co., Ltd., priority 2017, published 2022):
Where a chain is given by its changes, count along the chain named. In names and notes the source's numbering stands.

B1: R95A + I168C + A170C + L332T + M365I: MxPPO (SEQ ID NO: 3) variant (protein)
chain: MHHMPRTTGMNVAVVGGGISGLAVAHHLRSRGTDAVLLESSARLGGAVGTHALAGYLVEQGPNSFLDREPATRALAAALNLEGRIRAADPAAKRAYVYTRGRLRSVPASPPAFLASDILPLGARLRVAGELFSRRAPEGVDESLAAFGRRHLGHRATQVLLDAVQTGCYCGDVEQLSVAATFPMLVKMEREHRSLILGAIRAQKAQRQAALPAGTAPKLSGALSTFDGGLQVLIDALAASLGDAAHVGARVEGLAREDGGWRLIIEEHGRRAELSVAQVVLAAPAHATAKLLRPLDDALAALVAGIAYAPIAVVHLGFDAGTLPAPDGFGFTVPAEEQRRMLGAIHASTTFPFRAEGGRVLYSCIVGGARQPGLVEQDEDALAALAREELKALAGVTARPSFTRVFRWPLGIPQYNLGHLERVAAIDAALQRLPGLHLIGNAYKGVGLNDCIRNAAQLADALVAGNTSHAP
modifications: Synthetic (Protoporphyrinogen IX oxidase (MxPPO) of Myxococcus xanthus)
B2: R95A + I168C + L332T + M365I: MxPPO (SEQ ID NO: 3) variant (protein)
chain: B1 chain with C170A
modifications: Synthetic (Protoporphyrinogen IX oxidase (MxPPO) of Myxococcus xanthus)
B3: R95A + I168C + A170C + I311M + L332T + M365V: MxPPO (SEQ ID NO: 3) variant (protein)
chain: B1 chain with I311M, I365V
modifications: Synthetic (Protoporphyrinogen IX oxidase (MxPPO) of Myxococcus xanthus)
B4: R95A + I168C + I311M + M365V: MxPPO (SEQ ID NO: 3) variant (protein)
chain: B1 chain with C170A, I311M, T332L, I365V
modifications: Synthetic (Protoporphyrinogen IX oxidase (MxPPO) of Myxococcus xanthus)
B5: I168C + A170C + I311M + L332T + M365V: MxPPO (SEQ ID NO: 3) variant (protein)
chain: B1 chain with A95R, I311M, I365V
modifications: Synthetic (Protoporphyrinogen IX oxidase (MxPPO) of Myxococcus xanthus)
B6: R95A + I168C + I311M + L332T + M365V: MxPPO (SEQ ID NO: 3) variant (protein)
chain: B1 chain with C170A, I311M, I365V
modifications: Synthetic (Protoporphyrinogen IX oxidase (MxPPO) of Myxococcus xanthus)
B7: R95A + A170C + I311M + M365V: MxPPO (SEQ ID NO: 3) variant (protein)
chain: B1 chain with C168I, I311M, T332L, I365V
modifications: Synthetic (Protoporphyrinogen IX oxidase (MxPPO) of Myxococcus xanthus)
B8: F209A: ApPPO1 (SEQ ID NO: 1) variant (protein)
chain: MPFTHLKPLNRLLGSPRARHPHVAPQAVSVTNTSTTRPGGRSSAPGIPGDAEYDVVIVGAGISGLTTAQALAKQYSDAVPRLLVTEARDCVGGNIITRRDGGYQWEEGPNSFQPSDAVLRAAVDAGVADRLVLGDPKAPRYVYWGGRLRATPSGPDVLTFDLLSLWGKLRAGLGAAGFKAPLPEREESVKEFVTRNLGEEVFQRLIEPACSGVYAGDPAKLSMKAAFGKVYDLEKGGGSIVGGVLALMKARKQKPPEPRPADLPPKPKGQTVGSFDKGLVTLPSAIAEELGDRVVTGWKLESIDRSGDRFQLTYDTPQGRKKVSARSVALTVPAYTAASLLESRFPKLGKALSSIYYPPVASVALSYPETAILPERLGSDGHLAGFGQLHPRTQGVTTLGTIYASSLFPGRVPEGKVLLLSYFGGATNTRVATMPHGEIVSQVDKDLRKMLIRSDAESPHTVNVTVWPRAIPQFNVGHTDLIQEAKDDLASQGWQGLHLGGNYVAGVALGKCMEAGYKQAAELASHVKSLAT
modifications: Synthetic (Protoporphyrinogen IX oxidase (ApPPO1) of Auxenochlorella protothecoides)
B9: V360M: ApPPO1 (SEQ ID NO: 1) variant (protein)
chain: B8 chain with A209F, V360M
modifications: Synthetic (Protoporphyrinogen IX oxidase (ApPPO1) of Auxenochlorella protothecoides)
B10: A215C: ApPPO1 (SEQ ID NO: 1) variant (protein)
chain: B8 chain with A209F, A215C
modifications: Synthetic (Protoporphyrinogen IX oxidase (ApPPO1) of Auxenochlorella protothecoides)
B11: L389T: ApPPO1 (SEQ ID NO: 1) variant (protein)
chain: B8 chain with A209F, L389T
modifications: Synthetic (Protoporphyrinogen IX oxidase (ApPPO1) of Auxenochlorella protothecoides)
B12: I402T: ApPPO1 (SEQ ID NO: 1) variant (protein)
chain: B8 chain with A209F, I402T
modifications: Synthetic (Protoporphyrinogen IX oxidase (ApPPO1) of Auxenochlorella protothecoides)
B13: V213C: ApPPO1 (SEQ ID NO: 1) variant (protein)
chain: B8 chain with A209F, V213C
modifications: Synthetic (Protoporphyrinogen IX oxidase (ApPPO1) of Auxenochlorella protothecoides)
B14: F386V: ApPPO1 (SEQ ID NO: 1) variant (protein)
chain: B8 chain with A209F, F386V
modifications: Synthetic (Protoporphyrinogen IX oxidase (ApPPO1) of Auxenochlorella protothecoides)

Columns and labels:
MxPPO [1] = assay: Herbicide tolerance test of MxPPO wild type and variants in PPO-deficient E. coli BT3(ΔPPO), growth on herbicide-containing LB agar; format: cell-based, Myxococcus xanthus; conditions: relative to MxPPO WT, dark; for Herbicide tolerance, flumioxazin: up to 1000 μM (FIGS. 21-22); for Herbicide tolerance, sulfentrazone: up to 4000 μM (FIGS. 23-24)
Protocol: Then, the extent of tolerance was evaluated.

MxPPO [2] = assay: PPO enzyme activity of purified MBP-fused MxPPO wild type and variants; format: biochemical, Myxococcus xanthus; conditions: PPO enzyme activity of purified MxPPO protein, relative to wild type
ApPPO1 = assay: PPO enzyme activity of purified MBP-fused ApPPO1 wild type and variants; format: biochemical, Auxenochlorella protothecoides; conditions: PPO enzyme activity relative to ApPPO1 wild type; MBP-fused protein
Protocol: Thus, PPO proteins of wild type and variants were expressed as fused to MBP and were used for experiments.
The following process for purification of PPO protein was performed in a 4° C. cold room. […] The column was washed with 3 column volumes of buffer and the presence of protein in the washing solution was examined. When the protein was no longer detected, the washing procedure was terminated. Then, the MBP-PPO protein was eluted with approximately 2 column volumes of buffer containing 20 mM maltose. The protein concentration of each eluent was determined and the elution was stopped when the protein was no longer detected. Ten microliter of each fraction was investigated for protein quantification and SDS-PAGE analysis. The highly pure fractions of PPO protein variants were used for the enzyme assay.
Since protoporphyrinogen IX, a substrate of PPO protein, was not commercially available, it was chemically synthesized in the laboratory. Overall process was performed in dark under nitrogen stream. […] of protoporphyrin IX was dissolved in 20 ml of 20% (v/v) EtOH, and stirred under dark condition for 30 minutes. The obtained protoporphyrin IX solution was put into a 15 ml screw tube in an amount of 800 μl, and flushed with nitrogen gas for 5 minutes. To this, 1.5 g of sodium amalgam was added and vigorously shaken for 2 minutes. The lid was opened to exhaust hydrogen gas in the tube. Thereafter, the lid was closed and incubated for 3 minutes. The protoporphyrinogen IX solution was filtered using syringe and cellulose membrane filter. To 600 μl of the obtained protoporphyrinogen IX solution, approximately 300 μl of 2M MOPS [3-(N-morpholino) propanesulfonic acid] was added to adjust pH to 8.0. To determine the enzyme activity of PPO protein, a reaction mixture was prepared with the following composition (based on 10 ml): 50 mM Tris-Cl (pH 8.0); 50 mM NaCl; 0.04% (v/v) Tween 20; 40 mM glucose (0.072 g); 5 units glucose oxidase (16.6 mg); and 10 units catalase (1 μl).
Hundred and eighty microliters of a reaction mixture […] were placed in 96 well plates and 20 μl of purified PPO proteins were added. After 50 μl of the mineral oil was layered, the reaction was initiated by adding the substrate, protoporphyrinogen IX solution, to a final concentration of 50 μM. The reaction proceeded at room temperature for 30 min and the fluorescence of protoporphyrin IX was measured using Microplate reader (Sense, Hidex) (excitation: 405 nm; emission: 633 nm). To calculate the PPO enzyme activity, the protoporphyrinogen IX solution was kept open in the air overnight to oxidize the solution. To this, 2.7 N HCl was added, and the absorbance at 408 nm was measured. A standard curve was generated using standard protoporphyrin IX, and PPO activity was measured by calibration of protoporphyrin IX using the standard curve of protoporphyrin IX.
Activities of variants were presented relatively compared to that of wild type.

| Molecule | Herbicide tolerance, flumioxazin (MxPPO [1]) | Herbicide tolerance, sulfentrazone (MxPPO [1]) | Activity (%) (MxPPO [2]) | Activity (%) (ApPPO1) |
| --- | --- | --- | --- | --- |
| B1 | + (1-9 fold higher tolerance) | +++ (100-999 fold higher tolerance) | 18 | – |
| B2 | + (1-9 fold higher tolerance) | ++ (10-99 fold higher tolerance) | 34 | – |
| B3 | + (1-9 fold higher tolerance) | +++ (100-999 fold higher tolerance) | 8 | – |
| B4 | + (1-9 fold higher tolerance) | +++ (100-999 fold higher tolerance) | 37 | – |
| B5 | + (1-9 fold higher tolerance) | ++ (10-99 fold higher tolerance) | 20 | – |
| B6 | + (1-9 fold higher tolerance) | +++ (100-999 fold higher tolerance) | 12 | – |
| B7 | + (1-9 fold higher tolerance) | + (1-9 fold higher tolerance) | 31 | – |
| B8 | – | – | – | 78 |
| B9 | – | – | – | 59 |
| B10 | – | – | – | 89 |
| B11 | – | – | – | 11 |
| B12 | – | – | – | 16 |
| B13 | – | – | – | 85 |
| B14 | – | – | – | 86 |
